Experimental data published in the nanobody polyreactivity screen of Harvey et al. (2022).

Assay: yeast display, Sf9 membrane polyspecificity reagent, FACS + sequencing; frameworks hold sequencing errors
Procedure, shortened: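 Nanobodies from a synthetic yeast display library (Saccharomyces cerevisiae BJ5465), induced 36–48 hours with galactose, were stained 1 hour at 4 °C with 10% biotinylated, detergent-solubilized Sf9 membrane reagent, enriched on streptavidin microbeads, then FACS-sorted. Anti-HA (expression) and streptavidin (reagent binding) fluorescence set low and high (top ~1%) gates. Polyreactivity labels come from the gate of origin. Genes were colony-PCR amplified, MiSeq 2 × 250 sequenced and filtered by CDR length.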

Sequence | polyreactivity (PSR sort gate)
QVQLVESGGGLVQAGGSLRLSCAASGRISHRNAMGWYRQAPGKERELVAAITSGGSTNYADSVKGRFTISRDNAKNTVYLQMNSLKPEDTAVYYCTTTTYHWYYYRWEIFDYWGQGTQVTVSS | low polyreactivity
QVQLVESGGGLVQAGGSLRLSCAASGLTFSKNARGWYRQSPGKDRELVATISYSSSRTNYADSVKGRFTISRVNAKNPVYLQMNSLKPEDTAVYYCAARVYNGWPTHYDYWGQGTQVTVSS | high polyreactivity
QVQLVESGGGLVQAGGSLRLSCAASGSTFAYYAMGWYRQAPGKERELVAAISVSGGRTYYADSVKGRFTISRDNAKNTVYLQMNSLKPEDTAVYYCAARLWRDYYWGQGTQVTVSS | high polyreactivity
QVQLEESGGGLVQAGGSLRLSGAASGYTFGHYGMGWYRQAPGKERELVAAINSGGSTNDADSVKGRFTISRDNAKNTVYVQMNSLKPEDTAVYYCAADHSGGSRYDYWGQGTLVTVSS | low polyreactivity
QVQLVESGGGLVQAGGSLRLSCAASGFIFRRYAMGWYRQAPGKERELVASISWSGGSTYYADSVKGRFTISRDNAKNTVYLQMNSLKPEDTAVYYCAKGGYYSRYYSYGYWGQGTQVTVSS | high polyreactivity
QVQLVDSGGGLVQAGGSLRLICAASGRTFYYYAMGWYRQAPGKERELVAGISSGVSTTYADSVKGRFTISRDNAKNTVYLQLNSLKPEDTAFYYCAARWRPNRAYIGYDYWGQGTQVTVSS | low polyreactivity
QVQLVESGGGLVQAGGSLRLSCAASGRTFKVYAMGWYRQAPGKERELVAAISDRGGSTYYADSVKGRFTISRDNAKNSVYLQMNSLKPEDTAVYYCSAEYARSTWRAYPELDYWGQGTQVTVSS | low polyreactivity
QVQLVESGGGLVQAGGSLRLSCAPSGSIFRVYAMGWYRQAPGKERELVAAITIGTSTNYADSVKGRFTISRDNAKNTVYLQMNSLKPEDTAVYYCAAEWSYNLDSIASSPTSYDYWGQGTQVTVSS | low polyreactivity
QDQLVESGGGLVQAGGSLRLSCAASGSTFRGNAKGWYRQAPGKERELVAAITGSGGRRYYADSVKGRFTISRDYAKNTVYLQMNSLKPEDTAVYYCAAVYYGYRDRTDYGYWGQGTQVTVSS | high polyreactivity
QVQLVESGGGLVQAGGSLRLSCAASGRIFNIYAMGWYRQAPGKERELVAAIRWNGGSTYYADSVKGRFTISRDNAKYTVYLQMYSLKPEDSAVYYCAAARRRRFYDYYNAWYDVDYWGQGTQVSVSS | low polyreactivity
QVQLVDSGGCLVQAGGSLRLSCAASGSTFPTYAMGWYRQAPGKERELVAAITWSGGSTYYADSVKGRFTISRDNAKNTVYLQMNSLKPEDTAVYYCADSAYVQPYDYWGQGTQVTVSS | high polyreactivity
QVQLVESGGGLVQAGGSLRLSCAASGSTFQYYAMGGYRQAPGKERELVAGITWRDGNTYYADTVKGRFTISRDNANNTVYLQMNSLKPEDTAVYYCAARRYFVIYYPYDYWGQGTQVTVSS | low polyreactivity
QVQLVESGGGLVQAGGSLRLSCAASGSIFDTYAMGWYRQAPGKERELVATITRSGARTYYADSVKGRFTISRDNAKNTVYLQMNSLKPEDTAVYYCAALYYDDFGYEYDYWGQGTQVTVSS | low polyreactivity
QVQLVESGGGLVQAGGTLRLSCAASGYTFYFYAMGWYRQAPGKEREFVAAIRSSGGRTYYADSVKGRFTISRDNAKNTVYLQMNCLKPEDTAVYSCAAAGYYYSVDGAGPRYDYWGQGTQVTGSS | low polyreactivity
QVQLVESGGGLVQAGGSLRLSCAASGSIFTAYTMGWYRQAPGKERELVAVISDSSGRTYYADSVKGRFTISRDNAKNTVYLQMNSLKPEVTAVYYCAAEYSDIYEYWGQGTQVTVSS | low polyreactivity
QVQLVESGGGLVQAGGSLRLSCAASGRTFNGYVMGWYRQAPGKERELVAAITNRDGSTYYADSVKGRFTISRDNAKNTVYLQMNSLKPEDTAVYYCAAPVWLWADRYDSWGQGTQVTVSS | low polyreactivity
QVQLVESGGGLVQSGGSLRLSCAASGRTFGGYAMGWYRQAPGKERELVAAIRRSGGSTYYADSVKGLFTISRDNAKNTFYLQMKSMKPEDTAVYYCAAYGIYNVRIYYLGQGTQVTVSS | high polyreactivity
QVQLVESGGGLVQAGGSLRLSCAASGRTFSYYTMGWSRQAPGKERQLVARISNRGTNTYYADSVKGRFTISRDNAKNTVYLQMNSLIPEDTGVYYCAKYYYTSIVGYDSWGQGTQVTVSS | low polyreactivity
QVQLVESGGGLDQAGGSLRLSCAASGIIFGTNAMGWYIQAPGKESELVAAITWSGGNTTYADSVKGRFTISRDNAKNTVYLQMNSLKPEDTAVYYCAADFTRAGDYDYWGQGTQVTVSS | low polyreactivity
QVQLVESGGGLVQAGGRLRLSCAASGSNFGLNALGWYRQAPGKERELVAAINSDADTYYADSVKGRFTISRDNAKNTVYLQMNSQKPADTAVYYCAADYYWDPFDSNFGHVPQEYESWGQGTQVTVSS | low polyreactivity
QVQLVESGGGLVQAGGSLRLSCADSGLIFWAYAMGWYRQEPGTERELVAAINWRGGSTYYADSVKGRFTISRDTAKNTVYLQMNSLKPEDTAVYYCAADSYYDEYDYWGQGTQVTVSS | low polyreactivity
QVQLVESGGGLVQAGGSLRLSCAASGLISLYYAMGWYRQAPGKERELVARITGSGGDTYYADSVKGRFTISRDNAKNTVYLQMNSLKPEDTAVSYCAAPALDWGQGTQVTVSS | low polyreactivity

Sequence | polyreactivity (PSR sort gate)
QVQLVESGGGLVQAGGSLRLSCAASGRTFRWYAMGWYRQAPGKERELVAAITSSSSTNYADSVKGRFTISRDNAKNTVYLQMNSLKPEDTAVYYCAKGWNWYDLGESGYWGQGTQVTVSS | low polyreactivity
QFQLVESGGGLVQAGGSLRLSCADSGRILRFYAMGWYRQAPGKERELVAAISWTGGRTYYADSVKGRFTISRDNAKNTVYLQMNSLKPEDTAVYYCAAEVFTTGSFRRYDYWGQGTQVTVSS | high polyreactivity
QVQLVESGGGLVQAGGSLRLSCAASGFTFAPYAMGWYRQAPGKERELVAAISSNGGSTYYADSVKGRFTISRDNAKNTVYLQMNSLKPGDTAVYYCAAPVRQSSYNRYDSWGQGTQVTVSS | high polyreactivity
QVQLVESGGGLVQAGGSLRLSCAASGITFTVNSMGWYRQAPAKERELVAAISNDGSTYYADSVKGRFTISRDNAKNSVYLQMNRLKTEDTAVYYCAADTWDVFGPYGYDYWGQGTQVTVSS | low polyreactivity
QEQLQESGGCPVLAGGSLRLSCAASGTIFVRLDMGWYRQAPGKEREFVATIGSGSSTYYADSVKGSFTISRDNVKNTVYLQMNSLKPEDTAVYYCAVSAAEQSRHYYWDQGTQVTVSS | low polyreactivity
QVQLVESGGGLVQAGGSLRLSCAASGNTFEYNAMGWYRQAPGKEREFVAAIDFSDGSTYYADSVKGRFTISRDNAKNTVYLQMNSLKPEDTAVYYCAGDYYSYFGNYYYWGQGTQVTVSS | high polyreactivity
QVQLEESGGGLVQAGGSLRLSCAGSGGIFDVYAIGWYRPAPGKERELVAAITASGGSTYYADSVQGRFTISRDNAKNTVYFQMNSLKPEDTAGYYCAVQGFRYHSREYDYWGQGTQVTVSS | low polyreactivity
QVQLVESGGGLVQEGGSLRLSCAASGFTFGSYAMGWYRQAPGTERELLAAITTDGSTYYADSVKGRFTISRDNAKNTVYLHMNSLKREDTAVYYCAAGYSYDRYGSDMDYWGQGTQVTVSS | low polyreactivity
QVQLVESGGGLVQAGGSLRLSCAASGFIYARYAMGSYRQAPGKERELLAAISWSGARTYYADSVKGRFTISRDNAKNTVYLQMNSLKAEDTAVYYCAARRLSYSYDYWGQGTQVSVSS | high polyreactivity
QVQLVESGGGLVQAGGSLRLSCAASGSTFYYNAMGWYRQAPGKERELVAAINRGGITYYADSVKGRFTISRDNAKNTVYLQMNSLKPEDTAVYYCAASRYPRSYVSYYYWGQGTQVTVSS | high polyreactivity
QVQLVESGGGLVQAGGSLRLSCAASGSTFVRYDMGWYRQAPGKERELVADISWSGVSTYADSVKGRFTISRDNAKNTVYLQMNSLKPEDTAVYYCAKDSDLYQRGGYYWGQGTQVTVSS | low polyreactivity
QVQLVESGVGLVQAGGSLRLSCAASGLTFVDNVMGWYRQAPRTERELVADISSSGGSTYADSVKGRFTISRDNAKNTVYFQMNSLKPEDTAVYYCAAGDDSSGEQVDYWGQGTQVTVSS | low polyreactivity
QVQLVESGGGLVQAGGSLRLSCAASGRIFYAYAMGWYRQAPGKERELVAAISYIAGITYYADSVKGRFTISRDNAKNTVYLQMNSLIPEDTAVYYCAADDMVTGPLDFWGQGTQVTVSS | low polyreactivity
QVQLVESGGGLVQAGGSLRLSCAASGFTFTGYTMGWYRQAPGKQRELVATISGSGGNTYYADSVKGRFTISRDNAKNTVYLQMNSLKPEDTAVYYCARRRSGPRVLYYYWGQGTQVTVSS | low polyreactivity
QVQLVESGGGLVQAGCSLRLSCAASGRIFDTYAKGWYRQAPGKERELVATITAGTSTNYADSVKGRFTISRDNAKNTVYLKMNCLKPEDTAVYYCAASKYGSPPYRSYVYWGQGTQVSVSS | high polyreactivity
QVQLVESGGGLVQAGGSLRLSCAASGFIFVWYAMGWYRQAPGKERELVAAISWSGGNTYYADSVKGRFTISRDNAKNTVYLQMNSLKPEDTAVYYCNVVYFDGNPEDYDYWGQGTQVTVSS | high polyreactivity
QVQLVESGGGLVQAGGSLRLSCAASGSISIGYTMGWYRQAPGKERELVATISWSGGNTYYADSVKGRFTISRDNAKNTVYLQMNSLKPEDTAVYYCAGRWYYYPLLYDYWGQGTQVTVSS | low polyreactivity
QVQLVESGGGLVQAGGSLRLSCAASGSIFSGYTMGWYRQAPGKERELVAAISSDGSTTYADSVKGRFTISRDNAKNTVYLQMNSLKPEDTAVYYCAAYPYWDGSYGGYDYWGQGTQVTVSS | low polyreactivity
QVQLVESGGGLVQAGGSLRLSCAASGRIFYPNGMGWYRQAPGKERELVAAITGSGGSTYYADSVKGRFTISRDNAKNTVYLQMNSLIPEDTAVYYCAATWRYYLYPLGPHEFDYWGQGTQVTVSS | low polyreactivity
QVQLVESGGGLVQAGGSLRLSCAASGRIFRGYAMGWYRQAPGKERELVADISSGASTNYADSVKGRFTISRDNAKNTVYFQMNSLKPEDTAVYYCAAQHSVLAYFEYDYWGQGTQVTVSS | low polyreactivity
QVQLVESGVGLVQAGGSLLLSCSSSGRIFDLNAMGWYRQAPGKERELVAVIDRDGSTYYADSVKGRFTISRDNAKNTVYLQMNSLKPEDTAVYYCNKYWYSRHVRYWAYYAEQRYDYWGQGTQVTVSS | low polyreactivity
